Measured values as given in US20140011978A1 (EPFL TTO, published 2014).

T1: TNC III1-5 (human, UniProt P24821 622-1074)
T1 construct: The secreted protein in the assays lacks the leader; also called TG-TNC III1-5; engineered TNC III1-5
T1 sequence: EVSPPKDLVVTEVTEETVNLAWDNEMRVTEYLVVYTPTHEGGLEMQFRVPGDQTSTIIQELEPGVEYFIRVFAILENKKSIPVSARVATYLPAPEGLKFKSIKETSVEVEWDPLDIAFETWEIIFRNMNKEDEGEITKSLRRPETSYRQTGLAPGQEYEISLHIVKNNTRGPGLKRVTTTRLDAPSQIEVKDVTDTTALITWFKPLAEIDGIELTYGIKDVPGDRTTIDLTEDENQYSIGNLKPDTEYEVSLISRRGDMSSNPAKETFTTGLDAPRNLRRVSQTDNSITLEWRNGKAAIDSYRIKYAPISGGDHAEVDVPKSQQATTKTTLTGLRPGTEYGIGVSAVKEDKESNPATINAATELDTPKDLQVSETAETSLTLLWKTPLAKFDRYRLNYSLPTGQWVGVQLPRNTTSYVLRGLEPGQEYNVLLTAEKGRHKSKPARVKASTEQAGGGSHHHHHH

B1: TGF-β3 (ligand)
chain: ALDTNYCFRNLEENCCVRPLYIDFRQDLGWKWVHEPKGYYANFCSGPCPYLRSADTTHSTVLGLYNTLNPEASASPCCVPQDLEPLTILYYVGRTPKVEQLSNMVVKSCKCS
modifications: Natural form is a disulfide-linked homodimer; one protomer is given.
B2: FGF-20 (ligand)
chain: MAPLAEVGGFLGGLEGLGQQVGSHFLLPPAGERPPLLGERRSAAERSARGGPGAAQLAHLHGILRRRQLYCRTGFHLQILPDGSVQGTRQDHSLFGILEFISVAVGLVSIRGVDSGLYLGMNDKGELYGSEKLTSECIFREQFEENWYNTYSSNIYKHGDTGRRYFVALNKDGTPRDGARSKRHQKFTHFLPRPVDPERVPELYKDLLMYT
B3: EGF (ligand)
chain: NSDSECPLSHDGYCLHDGVCMYIEALDKYACNCVVGYIGERCQYRDLKWWELR
B4: TNC III3 (other, human, UniProt P24821 805-894, looked up)
GST fusion: APSQIEVKDVTDTTALITWFKPLAEIDGIELTYGIKDVPGDRTTIDLTEDENQYSIGNLKPDTEYEVSLISRRGDMSSNPAKETFTTGLD
notes: domain fragment; also called TNC III3 fused to GST
B5: TNC III5 fused to GST (other, human, UniProt P24821 991-1074, looked up)
chain: LQVSETAETSLTLLWKTPLAKFDRYRLNYSLPTGQWVGVQLPRNTTSYVLRGLEPGQEYNVLLTAEKGRHKSKPARVKASTEQA
notes: domain: TNC III5; also called domain TNC III5; not shown: GST
B6: TNC III4 (other, human, UniProt P24821 895-990, looked up)
GST fusion: APRNLRRVSQTDNSITLEWRNGKAAIDSYRIKYAPISGGDHAEVDVPKSQQATTKTTLTGLRPGTEYGIGVSAVKEDKESNPATINAATELDTPKD
notes: domain fragment; also called TNC III4 fused to GST
B7: FGF-18 (ligand, UniProt O76093 28-207, looked up)
chain: EENVDFRIHVENQTRARDDVSRKQLRLYQLYSRTSGKHIQVLGRRISARGEDGDKYAQLLVETDTFGSQVRIKGKETEFYLCMNRKGKLVGKPDGTSKECVFIEKVLENNYTALMSAKYSGWYVGFTKKGRPRKGPKTRENQQDVHFMKRYPKGQPELQKPFKYTTVTKRSRRIRPTHPA
B8: VEGF-C (ligand, UniProt P49767 112-227, looked up)
chain: AHYNTEILKSIDNEWRKTQCMPREVCIDVGKEFGVATNTFFKPPCVSVYRCGGCCNSEGLQCMNTSTSYLSKTLFEITVPLSQGPKPVTISFANHTSCRCMSKLDVYRQVHSIIRR
B9: FGF-6 (ligand, UniProt P10767 38-208, looked up)
chain: SPAGTRANNTLLDSRGWGTLLSRSRAGLAGEIAGVNWESGYLVGIKRQRRLYCNVGIGFHLQVLPDGRISGTHEENPYSLLEISTVERGVVSLFGVRSALFVAMNSKGRLYATPSFQEECKFRETLLPNNYNAYESDLYQGTYIALSKYGRVKRGSKVSPIMTVTHFLPRI
B10: PlGF-2 (ligand, UniProt P49763-3 19-170, looked up)
chain: LPAVPPQQWALSAGNGSSEVEVVPFQEVWGRSYCRALERLVDVVSEYPSEVEHMFSPSCVSLLRCTGCCGDENLHCVPVETANVTMQLLKIRSGDRPSYVELTFSQHVRCECRPLREKMKPERRRPKGRGKRRREKQRPTDCHLCGDAVPRR
B11: VEGF-A165 (ligand, UniProt P15692-4 27-191, looked up)
chain: APMAEGGGQNHHEVVKFMDVYQRSYCHPIETLVDIFQEYPDEIEYIFKPSCVPLMRCGGCCNDEGLECVPTEESNITMQIMRIKPHQGQHIGEMSFLQHNKCECRPKKDRARQENPCGPCSERRKHLFVQDPQTCKCSCKNTDSRCKARQLELNERTCRCDKPRR
B12: FGF-17 (ligand, UniProt O60258 23-216, looked up)
chain: TQGENHPSPNFNQYVRDQGAMTDQLSRRQIREYQLYSRTSGKHVQVTGRRISATAEDGNKFAKLIVETDTFGSRVRIKGAESEKYICMNKRGKLIGKPSGKSKDCVFTEIVLENNYTAFQNARHEGWFMAFTRQGRPRQASRSRQNQREAHFIKRLYQGQLPFPNHAEKQKQFEFVGSAPTRRTKRTRRPQPLT
B13: BDNF (ligand, UniProt P23560 129-247, looked up)
chain: HSDPARRGELSVCDSISEWVTAADKKTAVDMSGGTVTVLEKVPVSKGQLKQYFYETKCNPMGYTKEGCRGIDKRHWNSQCRTTQSYVRALTMDSKKRIGWRFIRIDTSCVCTLTIKRGR
notes: also called brain-derived neurotrophic factor
B14: FGF-7 (ligand, UniProt P21781 32-194, looked up)
chain: CNDMTPEQMATNVNCSSPERHTRSYDYMEGGDIRVRRLFCRTQWYLRIDKRGKVKGTQEMKNNYNIMEIRTVAVGIVAIKGVESEFYLAMNKEGKLYAKKECNEDCNFKELILENHYNTYASAKWTHNGGEMFVALNQKGIPVRGKKTKKEQKTAHFLPMAIT
B15: TGF-β2 (ligand, UniProt P61812 303-414, looked up)
chain: ALDAAYCFRNVQDNCCLRPLYIDFKRDLGWKWIHEPKGYNANFCAGACPYLWSSDTQHSRVLSLYNTINPEASASPCCVSQDLEPLTILYYIGKTPKIEQLSNMIVKSCKCS
B16: FGF-4 (ligand, UniProt P08620 31-206, looked up)
chain: APTAPNGTLEAELERRWESLVALSLARLPVAAQPKEAAVQSGAGDYLLGIKRLRRLYCNVGIGFHLQALPDGRIGGAHADTRDSLLELSPVERGVVSIFGVASRFFVAMSSKGKLYGSPFFTDECTFKEILLPNNYNAYESYKYPGMFIALSKNGKTKKGNRVSPTMKVTHFLPRL
B17: FGF-10 (ligand, UniProt O15520 38-208, looked up)
chain: QALGQDMVSPEATNSSSSSFSSPSSAGRHVRSYNHLQGDVRWRKLFSFTKYFLKIEKNGKVSGTKKENCPYSILEITSVEIGVVAVKAINSNYYLAMNKKGKLYGSKEFNNDCKLKERIEENGYNTYASFNWQHNGRQMYVALNGKGAPRRGQKTRRKNTSAHFLPMVVHS
B18: BMP-2 (ligand, UniProt P12643 283-396, looked up)
chain: QAKHKQRKRLKSSCKRHPLYVDFSDVGWNDWIVAPPGYHAFYCHGECPFPLADHLNSTNHAIVQTLVNSVNSKIPKACCVPTELSAISMLYLDENEKVVLKNYQDMVVEGCGCR

These binders were tested against T1, TNC III1-5 (assay: ELISA: cytokine coated (50 nM), 100 nM TNC III1-5 in solution, HRP-anti-His, A450).
Method: (§1) ELISA plates were coated with cytokines or BSA and further incubated with TNC III1-5 to analyze binding of TNC III1-5 to a wide variety of cytokines. […] A large amount of heparin (4 μM) impaired binding of TNC III1-5 to these cytokines. Results are depicted in FIG. 3. Method: 50 nM of cytokine was coated for (1 hr, 37° C.). After blocking with 2% BSA (1 hr, RT). 100 nM TNC III1-5 was applied in PBST (0.05% tween, 0.1% bovine serum albumin (BSA)) (1 hr, RT). TNC III1-5 was detected with horseradish peroxidase (HRP)-anti-HIS in PBST (1 hr, RT) and developed with 3,3′,5,5′-tetramethylbenzidine (TMB), a soluble colorimetric HRP […]. Addition of sulfuric acid stop solution changes the color to yellow, enabling accurate measurement of the intensity at 450 nm using a spectrophotometer or plate reader. […] Heparin (4 μM) was added to TNC III1-5 to test the effect of blocking the heparin binding site of TNC III1-5, which has been defined as domain TNC III5 (Weber, Zimmermann, et al., 1995).

Q: Does B1 bind?
A: no binding (tested: 100 nM)

Q: Does B2 bind?
A: no binding (tested: 100 nM)

Q: Does B3 bind?
A: no binding (tested: 100 nM)

What follows are binders tested against T2, PDGF-BB (UniProt P01127 82-190) (assay: ELISA: GST-fused TNC domains, GST and BSA coated, 2 nM PDGF-BB in solution, anti-PDGF-BB antibody and HRP secondary, A450).
T2 construct: The name implies a homodimer of B chains
Method: An ELISA was performed to test the affinity of different domains present in TNC1-5 to PDGF-BB as an example cytokine that has shown to bind TNC III1-5. Domain TNC III5 was defined to be responsible for cytokine binding. Method: ELISA plates were coated with individual TNC domains fused to GST, as well as GST and BSA. Wells were blocked with BSA and then incubated with 2 nM PDGF-BB. Binding of PDGF-BB was detected using an anti-PDGF-BB antibody and then a secondary horseradish peroxidase conjugated antibody.

T2 sequence (P01127 82-190 limits assumed): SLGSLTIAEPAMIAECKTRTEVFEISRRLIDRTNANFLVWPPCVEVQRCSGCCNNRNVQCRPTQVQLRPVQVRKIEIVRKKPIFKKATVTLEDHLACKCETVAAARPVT

Q: Does B4 bind?
A: no binding (tested: 2 nM PDGF-BB)

Q: Does B5 bind?
A: binds

Q: Does B6 bind?
A: binds

What follows are binders tested against T1, TNC III1-5 (assay: ELISA: cytokine coated (50 nM), 100 nM TNC III1-5 in solution, HRP-anti-His, A450; black bars without, white bars with 4 µM heparin).
Method: as §1

Q: Does B7 bind?
A: binds

Q: Does B8 bind?
A: binds

Q: Does B9 bind?
A: binds

Q: Does B10 bind?
A: binds

Q: Does B11 bind?
A: binds

Q: Does B12 bind?
A: binds

Q: Does B13 bind?
A: binds

Q: Does B14 bind?
A: binds

Q: Does B15 bind?
A: binds

Q: Does B16 bind?
A: binds

Q: Does B17 bind?
A: binds

Q: Does B18 bind?
A: binds
